{"source": "patent US20150368309A1", "about": "(SHIRE HUMAN GENETIC THERAPIES, published 2015)", "binders": {"B1": {"name": "PLGF C59A (ligand)", "chain": "LPAVPPQQWALSAGNGSSEVEVVPFQEVWGRSYCRALERLVDVVSEYPSEVEHMFSPSAVSLLRCTGCCGDENLHCVPVETANVTMQLLKIRSGDRPSYVELTFSQHVRCECRPLREKMKPERCGDAVPRRHHHHHH", "notes": "Expressed in human fibrosarcoma cells, purified on a Nickel column, glycosylated; RC4 96.7% monomer; R3 97.1% monomer, formulated in 1 mM DTT; also called C59A PLGF; not shown: Tev protease cleavage site added at the C-terminus"}, "B2": {"name": "mouse WT PLGF (ligand, UniProt P49764 19-158, looked up)", "chain": "VHSQGALSAGNNSTEVEVVPFNEVWGRSYCRPMEKLVYILDEYPDEVSHIFSPSCVLLSRCSGCCGDEGLHCVPIKTANITMQILKIPPNRDPHFYVEMTFSQDVLCECRPILETTKAERRKTKGKRKRSRNSQTEEPHP"}, "B3": {"name": "wild-type human PLGF protein (ligand)", "chain": "LPAVPPQQWALSAGNGSSEVEVVPFQEVWGRSYCRALERLVDVVSEYPSEVEHMFSPSCVSLLRCTGCCGDENLHCVPVETANVTMQLLKIRSGDRPSYVELTFSQHVRCECRPLREKMKPERCGDAVPRR", "notes": "also called WT PLGF; Human WT-PLGF"}}, "key": {"[1]": {"target": "T1, human sFlt-1-Fc (human, UniProt P17948-2 27-687, limits assumed)", "T1 construct": "A bought fusion protein; also called hsFlt-1-Fc; hsFlt-1-Fc dimer; not shown: Fc part (captured and detected with anti-human IgG Fc)", "T1 sequence (P17948 other isoform, or with tags, fused parts or gaps limits assumed)": "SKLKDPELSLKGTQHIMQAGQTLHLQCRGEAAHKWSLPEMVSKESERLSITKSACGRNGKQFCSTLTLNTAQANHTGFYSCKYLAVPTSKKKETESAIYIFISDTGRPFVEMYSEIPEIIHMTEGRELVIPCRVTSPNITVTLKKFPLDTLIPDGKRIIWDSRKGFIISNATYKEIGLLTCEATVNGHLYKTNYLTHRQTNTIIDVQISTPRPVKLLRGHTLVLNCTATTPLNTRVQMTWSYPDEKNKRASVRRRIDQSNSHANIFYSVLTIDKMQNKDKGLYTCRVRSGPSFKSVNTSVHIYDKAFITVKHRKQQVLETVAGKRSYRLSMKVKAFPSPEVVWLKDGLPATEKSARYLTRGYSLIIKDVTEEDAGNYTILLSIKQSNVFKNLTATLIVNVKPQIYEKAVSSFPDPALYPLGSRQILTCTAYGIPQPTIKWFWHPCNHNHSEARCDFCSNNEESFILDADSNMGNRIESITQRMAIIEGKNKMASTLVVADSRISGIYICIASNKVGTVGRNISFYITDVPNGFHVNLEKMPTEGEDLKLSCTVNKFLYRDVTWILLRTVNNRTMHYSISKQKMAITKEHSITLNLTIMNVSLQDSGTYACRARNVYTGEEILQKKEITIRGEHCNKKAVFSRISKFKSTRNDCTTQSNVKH", "assay": "VEGF:sFlt1 inhibition ELISA: binding of human sFlt-1 Fc to immobilized human VEGF in the presence of PLGF, detected with HRP anti-human IgG Fc, normalized to binding without PLGF", "method": "Inhibition of binding of VEGF to sFlt-1 by WT PLGF and PLGFC59A was also assessed by ELISA. The addition of recombinant human […] inhibited binding of recombinant VEGF to recombinant human sFlt-1 chimera (FIG. 6). Binding of human sFlt-1 Fc to immobilized human VEGF was quantified by immunodetection with HRP conjugated anti-human IgG Fc. Data were normalized to binding sFlt-1 Fc to VEGF in the absence of PLGF."}, "[2]": {"target": "T2, mouse sFlt-1 (mouse, UniProt P35969 23-759, limits assumed)", "T2 construct": "also called msFlt-1", "T2 sequence (looked up)": "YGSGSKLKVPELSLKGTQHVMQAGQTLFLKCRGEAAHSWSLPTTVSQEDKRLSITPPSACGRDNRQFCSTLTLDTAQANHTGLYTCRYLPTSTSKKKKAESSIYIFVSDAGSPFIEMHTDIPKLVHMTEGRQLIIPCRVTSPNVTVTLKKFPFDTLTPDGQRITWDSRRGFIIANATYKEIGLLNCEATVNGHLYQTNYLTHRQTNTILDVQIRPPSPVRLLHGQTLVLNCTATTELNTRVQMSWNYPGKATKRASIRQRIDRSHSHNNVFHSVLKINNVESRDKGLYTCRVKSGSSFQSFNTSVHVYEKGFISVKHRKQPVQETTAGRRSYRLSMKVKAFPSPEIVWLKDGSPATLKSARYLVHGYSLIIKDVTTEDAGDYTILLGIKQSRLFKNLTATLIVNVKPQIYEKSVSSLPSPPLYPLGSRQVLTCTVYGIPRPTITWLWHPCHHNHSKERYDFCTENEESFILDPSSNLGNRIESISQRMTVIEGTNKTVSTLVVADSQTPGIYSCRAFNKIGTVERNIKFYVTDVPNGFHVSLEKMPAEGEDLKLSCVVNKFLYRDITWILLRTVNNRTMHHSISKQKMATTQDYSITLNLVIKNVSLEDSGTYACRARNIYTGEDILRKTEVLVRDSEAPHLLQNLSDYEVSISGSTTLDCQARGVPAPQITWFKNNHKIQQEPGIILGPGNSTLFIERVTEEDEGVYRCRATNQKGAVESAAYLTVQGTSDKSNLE", "assay": "SPR, capture approach", "method": "(§1) In the capture approach, goat anti-hIgG Fc polyclonal antibody (30 μg/mL in 10 mM acetate buffer, pH 5.0) was immobilized onto a CM5 chip by amine coupling. The immobilization level or surface density of anti-hIgG Fc antibody was controlled between 6000 to 8000 RU. For the kinetic study, sFlt-1-Fc was captured on the surface that was immobilized with the anti-hIgG Fc antibody, before each injection of PLGF variants. The capture level of sFlt-1-Fc (10 μg/mL) was controlled by varying contact time, 10 to 30 seconds, at flow rate 10 μL/min. PLGF variants, as analytes, were serially diluted in HBS-EP+ buffer from 50 to 0.03 nM, and injected to the surface that captured sFlt-1-Fc. The association time for each PLGF variants injection was 300 seconds at 30 μL/min and dissociation time was 600 seconds at the same flow rate. After each round of PLGF variants' injection, a regeneration of […] H3PO4 pH1.8 at 60 μl/min for 90 seconds was performed. The regeneration step effectively removes the complex of sFlt-1-Fc and PLGF variants from the surface that was immobilized with anti-hIgG Fc antibody. A stabilization step was applied for 90 seconds after regeneration.\n(§2) The binding characteristics of PLGF variants, PLGF C59A, human WT PLGF and mouse WT PLGF, with msFlt-1 were studied in the mouse model. The same capture approach for hsFlt-1 was used for the msFlt-1."}, "[3]": {"target": "T2, mouse sFlt-1", "assay": "SPR (Biacore T200), msFlt-1 captured, 1:1 model; column 'KD (M) Average' of the two runs", "method": "as §1, §2"}, "[4]": {"target": "T1, human sFlt-1-Fc", "assay": "surface plasmon resonance (BIACORE), overlaid multi-cycle sensorgrams with 1:1 binding model fit; the sheet says only 'sFlt-1', neither species nor format is printed"}, "[5]": {"target": "T1, human sFlt-1-Fc", "assay": "isothermal titration calorimetry, PLGF C59A (77 uM) titrated into sFlt-1-Fc (5.3 uM), 25 C, PBS pH 7.4", "method": "(§3) PLGF C59A and human sFlt-1-Fc (Cat#321-FL/CF, R&D System) were extensively dialyzed against PBS pH 7.4 buffer overnight. After dialysis, the proteins were concentrated using VIVISPIN 500 (10 kDa Cutoff, Cat# vs0601). The ratio of PLGF C59A in syringe to sFlt-1-Fc in the cell was about 10:1, with PLGF C59A concentration to be 77 μM, and the concentration of sFlt1-Fc to be 5.3 μM. Titrations were carried out using 2.0-μL injections for total 18 injections. An initial 2-μl injection was carried out but the data not included in the final data analysis. All titrations were done at 25° C. The binding isotherm was fitted with nonlinear regression on ORIGIN (GE MICROCAL, INC). The stoichiometry (N) of the binding interaction, the equilibrium association constant (KA) and enthalpy (ΔH) of the complex formation were calculated from the titration data."}, "[6]": {"target": "T1, human sFlt-1-Fc", "assay": "isothermal titration calorimetry, PLGF C59A in the syringe titrated into sFlt-1-Fc in the cell, 25 C, PBS pH 7.4, model OneSites", "method": "as §3"}, "[7]": {"target": "T1, human sFlt-1-Fc", "assay": "SPR (Biacore T200), hsFlt-1-Fc, 1:1 model; format of this run (capture or single cycle) not marked in the table", "method": "In the single cycle kinetic approach, PLGF C59A at 50 μg/ml in 10 mM acetate buffer pH 5.0 was immobilized via ligand thiol coupling to ˜200 RU. sFlt-1-Fc dimer was serially diluted in HBS-EP+ running buffer from 30 to 1.875 nM. The sFlt-1-Fc dimer was injected from low to high concentration sequentially, without dissociation phase and regeneration step. The association step was 180 seconds per injection at 30 μL/min. At the end of the last injection, one single dissociation step was performed at 30 μL/min, for one hour to collect sufficient dissociation data.\nDue to the nonspecific binding of hsFlt-1 on the reference cells and the poor regeneration conditions for PLGF C59A, a single cycle kinetic method were adopted by immobilizing PLGF C59A vial thiol coupling, and injecting hsFlt-1 as analyte. In the single cycle kinetic approach, PLGF C59A was immobilized onto CM4 chips through free cysteine residuals, C69 and C125, in PLGF C59A. Concentration of the Flt1-Fc dimer injected was varied from 0.37 to 30 nM. The binding characteristics, association rate constant (Ka), dissociation rate constant (Kd) and equilibrium dissociation constant (KD), are summarized in Table 6."}, "[8]": {"target": "T2, mouse sFlt-1", "assay": "SPR (Biacore T200), msFlt-1 captured, PLGF as analyte, 1:1 model", "method": "as §1, §2"}, "[9]": {"target": "T1, human sFlt-1-Fc", "assay": "SPR (Biacore T200), hsFlt-1-Fc, 1:1 model; column 'KD (M) Average' of the two runs"}, "[10]": {"target": "T1, human sFlt-1-Fc", "assay": "SPR (Biacore T200), hsFlt-1-Fc captured by anti-hIgG Fc, PLGF as analyte, 1:1 model", "method": "as §1\nTwo BIACORE experiment formats, single cycle kinetics and anti-Fc capture approach, were used to study binding characteristic of PLGF variants with hsFlt-1."}, "[11]": {"target": "T1, human sFlt-1-Fc", "assay": "SPR (Biacore T200), hsFlt-1-Fc captured by anti-hIgG Fc, PLGF as analyte, 1:1 model; first of the two unlabelled rows for Human WT-PLGF on Human sFlt-1"}, "[12]": {"target": "Flt-1 receptor (plate based assay) (Homo sapiens (Human), UniProt P17948 27-758)", "sequence (P17948 27-758 limits assumed)": "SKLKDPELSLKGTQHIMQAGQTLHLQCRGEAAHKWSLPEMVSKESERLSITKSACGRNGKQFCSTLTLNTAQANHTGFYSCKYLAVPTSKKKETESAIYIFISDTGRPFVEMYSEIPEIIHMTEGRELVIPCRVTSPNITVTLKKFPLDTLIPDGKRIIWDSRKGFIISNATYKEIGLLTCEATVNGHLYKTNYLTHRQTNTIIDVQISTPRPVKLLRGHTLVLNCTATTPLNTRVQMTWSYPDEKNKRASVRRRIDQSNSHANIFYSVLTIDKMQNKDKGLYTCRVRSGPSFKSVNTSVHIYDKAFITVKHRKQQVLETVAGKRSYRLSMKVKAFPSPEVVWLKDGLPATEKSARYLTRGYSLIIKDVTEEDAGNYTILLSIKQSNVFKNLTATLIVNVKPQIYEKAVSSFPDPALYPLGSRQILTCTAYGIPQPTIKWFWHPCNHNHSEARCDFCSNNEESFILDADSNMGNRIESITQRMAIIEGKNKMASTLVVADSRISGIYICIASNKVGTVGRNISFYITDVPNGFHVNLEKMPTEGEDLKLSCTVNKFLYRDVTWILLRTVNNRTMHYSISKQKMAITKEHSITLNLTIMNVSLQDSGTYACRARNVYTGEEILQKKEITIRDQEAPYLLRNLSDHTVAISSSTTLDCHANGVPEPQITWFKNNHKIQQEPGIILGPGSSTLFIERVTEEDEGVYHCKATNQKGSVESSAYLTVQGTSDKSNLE", "assay": "plate based assay: Flt-1 captured by coated mouse monoclonal anti-Flt-1 antibody, bound PLGF detected with biotinylated goat anti-PLGF antibody and streptavidin-HRP, OD450", "method": "A plate based assay was performed to examine the binding of mutant PLGF protein to Flt-1. Briefly, plates were coated with a mouse monoclonal anti-Flt-1 antibody for capture. After washing and blocking steps, 250 ng/ml of Flt-1 receptor was incubated with WT PLGF (0-400,000 pg/ml) or PLGF C59A (0-40,000 pg/ml) in the plate. After further washing steps, bound WT or mutant PLGF were detected using a biotinylated goat anti-PLGF antibody and streptavidin-HRP immunodetection system. PLGF C59A appeared to bind Flt-1 with lower affinity than WT PLGF. (FIG. 1)."}}, "note": "“And” between values parts separate entries of the source, which are not always exact repeats. Identical values can stand only once.", "data": [{"binder": "B1", "values": [{"measurement": "IC50", "setting": "[1]", "result": 28.3, "unit": "nM"}, {"measurement": "fold weaker affinity than human WT PLGF with msFlt-1", "setting": "[2]", "result": "~90", "unit": "fold"}, {"measurement": "fold weaker affinity than mouse WT PLGF with msFlt-1", "setting": "[2]", "result": "~250", "unit": "fold"}, {"measurement": "Kd", "setting": "[3]", "result": 5.17, "unit": "nM"}, {"measurement": "Kd", "setting": "[4]", "result": 0.572, "unit": "nM"}, {"measurement": "koff", "setting": "[4]", "result": 0.000338, "unit": "s⁻¹"}, {"measurement": "kon", "setting": "[4]", "result": 592000, "unit": "M⁻¹ s⁻¹"}, {"measurement": "Kd", "setting": "[5]", "result": "~49", "unit": "nM"}, {"measurement": "Ka", "setting": "[6]", "result": "2.03e+07", "unit": "M⁻¹"}, {"measurement": "ΔH", "setting": "[6]", "result": -12.8, "unit": "kcal/mol"}, {"measurement": "ΔS", "setting": "[6]", "result": -9.4, "unit": "cal/mol/deg"}, {"measurement": "Kd", "setting": "[7]", "result": "1.61 nM and 0.886 nM"}, {"measurement": "koff", "setting": "[7]", "result": "0.000372 s⁻¹ and 0.000234 s⁻¹"}, {"measurement": "kon", "setting": "[7]", "result": "231000 M⁻¹ s⁻¹ and 264000 M⁻¹ s⁻¹"}, {"measurement": "Kd", "setting": "[8]", "result": "7.22 nM and 3.12 nM"}, {"measurement": "koff", "setting": "[8]", "result": "0.000496 s⁻¹ and 0.000633 s⁻¹"}, {"measurement": "kon", "setting": "[8]", "result": "159000 M⁻¹ s⁻¹ and 87700 M⁻¹ s⁻¹"}, {"measurement": "Kd", "setting": "[9]", "result": 1.25, "unit": "nM"}]}, {"binder": "B2", "values": [{"measurement": "Kd", "setting": "[3]", "result": 0.0205, "unit": "nM"}, {"measurement": "Kd", "setting": "[8]", "result": "0.0301 nM and 0.0109 nM"}, {"measurement": "koff", "setting": "[8]", "result": "0.000135 s⁻¹ and 9.69e-05 s⁻¹"}, {"measurement": "kon", "setting": "[8]", "result": "4.49e+06 M⁻¹ s⁻¹ and 8.86e+06 M⁻¹ s⁻¹"}]}, {"binder": "B3", "values": [{"measurement": "IC50", "setting": "[1]", "result": 4.59, "unit": "nM"}, {"measurement": "Kd", "setting": "[3]", "result": 0.0565, "unit": "nM"}, {"measurement": "Kd", "setting": "[10]", "result": "0.0259 nM and 0.0551 nM"}, {"measurement": "koff", "setting": "[10]", "result": "6.03e-05 s⁻¹ and 8.86e-05 s⁻¹"}, {"measurement": "kon", "setting": "[10]", "result": "1.61e+06", "unit": "M⁻¹ s⁻¹"}, {"measurement": "kon", "setting": "[11]", "result": "2.33e+06", "unit": "M⁻¹ s⁻¹"}, {"measurement": "koff", "setting": "[8]", "result": "0.000243 s⁻¹ and 0.000152 s⁻¹"}, {"measurement": "kon", "setting": "[8]", "result": "2.73e+06 M⁻¹ s⁻¹ and 6.36e+06 M⁻¹ s⁻¹"}, {"measurement": "EC50 (read off the curve)", "setting": "[12]", "result": "~0.2", "unit": "nM"}, {"measurement": "Kd", "setting": "[9]", "result": 0.0405, "unit": "nM"}]}]}
